# Results reported in patent US20070270364.
# B1: histone acetyltransferase (HAT) region of p300 (protein)
# chain: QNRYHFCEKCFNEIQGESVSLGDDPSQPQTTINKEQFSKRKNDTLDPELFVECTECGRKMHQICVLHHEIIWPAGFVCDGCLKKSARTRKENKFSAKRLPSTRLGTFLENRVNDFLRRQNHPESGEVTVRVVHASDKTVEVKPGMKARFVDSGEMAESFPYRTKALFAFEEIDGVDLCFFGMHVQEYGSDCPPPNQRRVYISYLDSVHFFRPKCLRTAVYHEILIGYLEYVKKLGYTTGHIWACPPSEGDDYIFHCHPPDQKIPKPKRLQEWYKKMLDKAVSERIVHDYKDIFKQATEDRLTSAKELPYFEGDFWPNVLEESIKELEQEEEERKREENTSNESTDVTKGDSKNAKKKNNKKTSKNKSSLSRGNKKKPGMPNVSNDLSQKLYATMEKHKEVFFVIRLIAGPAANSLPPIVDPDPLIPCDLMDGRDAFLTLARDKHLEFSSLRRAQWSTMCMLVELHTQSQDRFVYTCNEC
# Molecular target: GST-p68 fusion polypeptides
protein,measurement,value
B1,in vitro 14C-acetylation of GST-p68 fusion polypeptides (autoradiogram),p300 indeed acetylated p68 polypeptides exclusively within its N-terminal 80 amino acids
